This assay has as its target mtPaf1 (subunit of the four-subunit mtPaf1 complex) (Myceliophthora thermophila). In words: co-purification, SDS/PAGE.

“mtCdc73 (subunit of the four-subunit mtPaf1 complex) (natural protein)” registered a stoichiometry N of 1.
Substance “mtLeo1 (subunit of the four-subunit mtPaf1 complex) (natural protein)” had a stoichiometry N of 1.

The values above are taken from PMC6176576.
